The EC50 (read off the curve) is the concentration giving half of the maximal effect. Read a low EC50 (read off the curve) as an effect from little substance.

Among the data in patent publication US20120093805A1 are EC50 (read off the curve) values, retold here.

In the test the target is sugar chain-deficient cynomolgus CD27 (C-terminal His tag) expressed on Lec8 cells (cynomolgus). Kind of test: flow cytometry (FCM) on cynomolgus CD27/Lec8 cells (Example 11(5)) [A]. (In general: In flow cytometry, cells or beads pass a laser one at a time.)

B1: anti-sugar chain-deficient CD27 chimeric antibody chimeric KM4030 (antibody, human IgG1, V domains shown)
VH: EVQLVESGGGLVQPGRSLKLSCVASGFTFNNYWMTWIRQAPGKGLEWIASITNSGGSTYYPDSVKGRFTISRDNAKGTLYLQMNSLRSEDTATYYCTRDVNTYYGYNALFDYWGQGVMVTVSS
VL: DIQMTQSPSVLSASVGDRVTLNCKASQNINEYLNWYQQKLGEAPKLLIYNTNNLQTGIPSRFSGSGSGTDFTLTISSLQPEDFAAYFCFQHNSWPYTFGAGTKLELK
The molecule B1 came in with an EC50 (read off the curve) of 0.2 µg/mL.
